Test results taken from US20200181255A1 (Amgen, published 2020).
Numbering of substitutions follows the chain as printed.

T1: recombinant human IL-23 (human, UniProt Q9NPF7 20-189; P29460 23-328)
T1 construct: also called rhuIL-23; recombinant human (rhu) IL-23
T1 sequence 1: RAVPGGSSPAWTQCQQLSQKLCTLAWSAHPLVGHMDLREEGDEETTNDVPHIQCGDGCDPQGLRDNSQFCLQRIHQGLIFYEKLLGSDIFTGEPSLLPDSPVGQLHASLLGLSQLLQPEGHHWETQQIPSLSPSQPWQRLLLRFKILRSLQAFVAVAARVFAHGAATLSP
T1 sequence 2: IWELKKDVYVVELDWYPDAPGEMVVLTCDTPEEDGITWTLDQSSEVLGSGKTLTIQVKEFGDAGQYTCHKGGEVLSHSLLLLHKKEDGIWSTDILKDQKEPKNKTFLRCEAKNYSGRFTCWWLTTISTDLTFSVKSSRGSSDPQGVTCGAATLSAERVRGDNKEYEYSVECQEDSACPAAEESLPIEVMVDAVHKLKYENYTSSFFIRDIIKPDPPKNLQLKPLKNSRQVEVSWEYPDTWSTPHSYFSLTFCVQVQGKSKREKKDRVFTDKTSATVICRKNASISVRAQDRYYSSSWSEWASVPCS

T2: recombinant cynomolgous IL-23 (cynomolgous)
T2 chain 1: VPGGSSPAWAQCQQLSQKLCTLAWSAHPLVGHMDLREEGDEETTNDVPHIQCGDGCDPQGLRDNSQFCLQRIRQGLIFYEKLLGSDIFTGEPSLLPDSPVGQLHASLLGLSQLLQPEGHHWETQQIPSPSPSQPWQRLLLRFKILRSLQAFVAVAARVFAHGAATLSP
T2 chain 2: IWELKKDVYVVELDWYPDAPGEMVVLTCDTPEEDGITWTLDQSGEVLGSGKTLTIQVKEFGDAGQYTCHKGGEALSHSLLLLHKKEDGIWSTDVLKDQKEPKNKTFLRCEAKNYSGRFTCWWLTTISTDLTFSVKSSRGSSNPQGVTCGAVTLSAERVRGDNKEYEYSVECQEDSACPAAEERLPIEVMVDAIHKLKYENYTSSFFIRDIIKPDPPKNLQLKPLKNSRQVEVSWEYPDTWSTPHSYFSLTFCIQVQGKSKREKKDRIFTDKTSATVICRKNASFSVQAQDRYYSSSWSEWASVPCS

T3: Native human IL-23 (human, UniProt Q9NPF7 20-189; P29460 23-328)
T3 sequence 1: T1 sequence 1
T3 sequence 2: T1 sequence 2

B1: Antibody G (antibody, V domains shown)
VH: QVQLQESGPRLVKPSETLSLTCTVSGDSISSYFWSWIRQPPGKGLEWLGYIYYSGSTNYNPSLKSRVTISIDTSKNQFSLKLSSVTAADTAVYYCTRDRGSYYGSDYWGQGTLVTVSS
VL: DIQMTQSPSSVSASVGDRVTITCRAGQVISSWLAWYQQKPGKAPKLLIYAASSLQSGVPSRFSGSGSGTDFTLTISSLQPDDFATYYCQQATSFPLTFGGGTKVEIK
notes: also called VH12/VL12
B2: Antibody L (antibody, V domains shown)
VH: QVQLVESGGGVVQPGRSLRLSCAASGFTFSSYAMHWVRQAPGKGLEWLSVISHDGSIKYYADSVKGRFTISRDNSKNTLYLQMNSLRAEDTAVYYCARERTTLSGSYFDYWGQGTLVTVSS
VL: QAVLTQPSSLSASPGASASLTCTLRSGINVGTYRIYWYQQKPGSPPQYLLRYKSDSDKQQGSGVPSRFSGSKDASANAGILLISGLQSEDEADYYCMIWHSSASVFGGGTKLTVL
notes: also called VH4/VL4
B3: Antibody B (antibody, V domains shown)
VH: QVQLQESGPGLVKPSQTLSLTCTVSGGSISSGGYYWSWIRQHPGKGLEWIGHIHYSGNTYYNPSLKSRVTISVDTSKNQFSLKLSSVTAADTAVYYCAKNRGFYYGMDVWGQGTTVTVSS
VL: B1 VL with G26S, K45S, G66V, D81E, T92N, L96F, G100P, E105D, I106F
notes: also called VH9/VL9
B4: Antibody C (antibody, V domains shown)
VH: B3 VH with S30N, H52Y, H54Y, N58S, T59S, K77Q, K99R, N100D, F103H
VL: B1 VL with G26S, V28G, I29S, L33F, D81E, T92N, L96F, G100P, E105D
notes: also called VH10/VL10
B5: Antibody I (antibody, V domains shown)
VH: QVQLQESGPGLVKPSETLSLTCTVSGGSISTYYWSWIRQPAGKGLEWIGLIYTSGSTNYNPSLKSRVTMSLDTSKNQFSLRLTSVTAADTAVYYCARDRGYYYGVDVWGQGTTVTVSS
VL: B1 VL with M4L, Q6P, G26S, V28G, S30A, S31G, D81E, T92D, L96P
B6: Antibody J (antibody, V domains shown)
VH: B2 VH with A33G, L48V, S49A, H53F, I57L
VL: B2 VL
B7: Antibody A (antibody, V domains shown)
VH: B3 VH with H52Y, H54Y, N58S, I71M
VL: DIQLTQSPSSVSASVGDRVTITCRASQVISSWFAWYQQKPGKAPNLLIYAASSLQSGVPSRFSGSGSGTDFTLTISSLQPADFATYFCQQANSFPFTFGPGTKVDVK
B8: Antibody H (antibody, V domains shown)
VH: B3 VH with S37T, H52Y, H54Y, V69I, K83S, K99R, F103Y
VL: B7 VL with L4M, V28G, I29F, S31G, F33L, N45K, A81E, F87Y, V106I
B9: Antibody K (antibody, V domains shown)
VH: EVQLVESGGGLVQPGGSLRLSCVVSGFTFSSFSMNWVRQAPGKGLEWVSYISSRSSTIYYADSVKGRFTISRDNAKNSLYLQMNSLRDEDTAVYYCARRIAAAGPWGYYYAMDVWGQGTTVTVSS
VL: QPELTQPPSASASLGASVTLTCTLSSGYSDYKVDWYQLRPGKGPRFVMRVGTGGTVGSKGEGIPDRFSVLGSGLNRSLTIKNIQEEDESDYHCGADHGSGSNFVYVFGTGTKVTVL
B10: Antibody N (antibody, V domains shown)
VH: B9 VH with V23A, V24A, S31T, F32Y, R54S, I58R, Y60H
VL: B9 VL with E3V, L38Q, T55I, S77Y, S101N
B11: Antibody M (antibody, V domains shown)
VH: B9 VH with V23A, V24A, F32Y, Y60I, P105G, W106F, G107H, M112L
VL: B9 VL with E3V, S25N, L38Q, T55I, E61D, S77Y
B12: Antibody E (antibody, V domains shown)
VH: QVQLVESGGGVVQPGRSLRLSCAASGFTFSSYGMHWVRQAPGKGLEWVAVIWYDGSNEYYADSVKGRFTISRDNSKNTLYLQMNSLRAEDTAVYYCARDRGYTSSWYPDAFDIWGQGTMVTVSS
VL: QSVLTQPPSVSGAPGQRVTISCTGSSSNTGAGYDVHWYQQVPGTAPKLLIYGSGNRPSGVPDRFSGSKSGTSASLAITGLQAEDEADYYCQSYDSSLSGWVFGGGTRLTVL

The binders below were run against T1, recombinant human IL-23 (assay: KinExA).

Row | Binder | kon [M⁻¹ s⁻¹]
1 | B1 | 400000
2 | B2 | 3.34e+06
3 | B3 | 1.17e+06
4 | B4 | 1.36e+06

Target: T2, recombinant cynomolgous IL-23
Assay: cell-based or functional assay

Row | Binder | IC50 (pM), STAT-luciferase assay [pM]
5 | B1 | 421
6 | B5 | 650
7 | B6 | 56
8 | B2 | 47
9 | B7 | 379
10 | B3 | 130
11 | B8 | 1024
12 | B4 | 376
13 | B9 | 61
14 | B10 | 238
15 | B11 | 56
16 | B12 | 188

The binders below were run against T3, Native human IL-23 (assay: cell-based or functional assay).

Row | Binder | IC50 (pM), STAT-luciferase assay [pM]
17 | B1 | 156
18 | B5 | 208
19 | B6 | 83
20 | B2 | 113
21 | B7 | 114
22 | B3 | 45
23 | B8 | 192
24 | B4 | 107
25 | B9 | 71
26 | B10 | 361
27 | B11 | 34
28 | B12 | 140

The binders below were run against T1, recombinant human IL-23 (assay: cell-based or functional assay).

Row | Binder | IC50 (pM), STAT-luciferase assay [pM]
29 | B1 | 296
30 | B5 | 338
31 | B6 | 36
32 | B2 | 23
33 | B7 | 190
34 | B3 | 100
35 | B8 | 253
36 | B4 | 211
37 | B9 | 43
38 | B10 | 145
39 | B11 | 40

Target: T2, recombinant cynomolgous IL-23
Assay: cell-based or functional assay
Remark: another data set of the same source

Row | Binder | IC50 (pM), NK cell assay (IFNγ) [pM]
40 | B1 | 23
41 | B5 | 52
42 | B6 | 5
43 | B2 | 4
44 | B7 | 31
45 | B3 | 19
46 | B8 | 33
47 | B4 | 29
48 | B9 | 8
49 | B11 | 12
50 | B12 | 21

Target: T3, Native human IL-23
Assay: cell-based or functional assay
Remark: another data set of the same source

Row | Binder | IC50 (pM), NK cell assay (IFNγ) [pM]
51 | B1 | 152
52 | B3 | 85
53 | B12 | 158

Target: T1, recombinant human IL-23
Assay: cell-based or functional assay
Remark: another data set of the same source

Row | Binder | IC50 (pM), NK cell assay (IFNγ) [pM]
54 | B1 | 45
55 | B5 | 69
56 | B6 | 4
57 | B2 | 3
58 | B7 | 42
59 | B3 | 48
60 | B8 | 29
61 | B4 | 32
62 | B9 | 7
63 | B11 | 8

Target: T2, recombinant cynomolgous IL-23
Assay: cell-based or functional assay
Remark: another data set of the same source

Row | Binder | IC50 (pM), IFNγ human whole blood assay [pM]
64 | B1 | 93
65 | B3 | 161
66 | B4 | 186
67 | B12 | 54

Target: T1, recombinant human IL-23
Assay: cell-based or functional assay
Remark: another data set of the same source

Row | Binder | IC50 (pM), IFNγ human whole blood assay [pM]
68 | B1 | 53
69 | B3 | 117
70 | B4 | 97

Target: T2, recombinant cynomolgous IL-23
Assay: cell-based or functional assay
Remark: another data set of the same source

Row | Binder | IC50 (pM), IL-22 human whole blood assay [pM]
71 | B1 | 66
72 | B3 | 113
73 | B12 | 56

Target: T1, recombinant human IL-23
Assay: cell-based or functional assay
Remark: another data set of the same source

Row | Binder | IC50 (pM), IL-22 human whole blood assay [pM]
74 | B1 | 83
75 | B3 | 117

These binders were tested against T1, recombinant human IL-23 (assay: KinExA, derived from KD=Koff/Kon).

Row | Binder | koff [s⁻¹]
76 | B1 | 8.1e-07
77 | B2 | 3.7e-06
78 | B3 | 4.7e-06
79 | B4 | 4.1e-06

Each binder was assayed against T1, recombinant human IL-23 (assay: KinExA, solution equilibrium, rhuIL-23-coated beads).
Experimental: Normal human serum (NHS)-activated Sepharose 4 fast flow beads (Amersham Biosciences, part of GE Healthcare, Uppsala, Sweden), are pre-coated with rhuIL-23 and blocked with 1 m Tris buffer with 10 mg/mL BSA. 50 pM of IL-23 antibody is incubated with rhuIL-23 (12 points of 1:2 dilutions starting from 800 pM) at room temperature for 72 hours before it is run through the rhuIL-23-coated Sepharose beads. The amount of the bead-bound antibody was quantified by fluorescent (Cy5) labeled goat anti-human-Fc antibody (Jackson Immuno Research, West Grove, Pa.). The binding signal is proportional to the amount of free antibody at equilibrium.

Row | Binder | Kd [pM]
80 | B1 | 2
81 | B2 | 1.08
82 | B3 | 3.99
83 | B4 | 2.56
